System: Escherichia coli TOP10
Test: shrunken log2 fold change of peptide-encoding DNA abundance (4.5 h post-induction vs induction); higher = less antimicrobial activity (less host growth inhibition)
Conditions: time post-induction: 4.5 h; library: site-saturation at positions 5, 18, 19, 20
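Note: peptides expressed intracellularly from a pBAD plasmid library in pooled LB shake-flask culture, induced with 0.3% L-arabinose, DNA abundance read by NGS, three biological replicates, DESeq2 with apeglm shrinkage.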

RRIRHRPPRLPRPRPRPQTVPRP
shrunken log2 fold change: -0.495

RRIRSRPPRLPRPRPRPSWYPRP
shrunken log2 fold change: -0.745

RRIRHRPPRLPRPRPRPFYNPRP
shrunken log2 fold change: -0.632

RRIRVRPPRLPRPRPRPPGDPRP
shrunken log2 fold change: 0.12

RRIRVRPPRLPRPRPRPRMMPRP
shrunken log2 fold change: 0.0121

RRIRRRPPRLPRPRPRPNHLPRP
shrunken log2 fold change: -0.394

RRIRGRPPRLPRPRPRPVAMPRP
shrunken log2 fold change: 1.02

RRIRGRPPRLPRPRPRPPPTPRP
shrunken log2 fold change: 1.47

RRIRTRPPRLPRPRPRPSDCPRP
shrunken log2 fold change: 0.131

RRIRARPPRLPRPRPRPCWLPRP
shrunken log2 fold change: 0.294

RRIRPRPPRLPRPRPRPVDFPRP
shrunken log2 fold change: 0.0795

RRIRMRPPRLPRPRPRPMLHPRP
shrunken log2 fold change: 0.0756

RRIRCRPPRLPRPRPRPLQFPRP
shrunken log2 fold change: -0.0752

RRIRVRPPRLPRPRPRPHKMPRP
shrunken log2 fold change: -0.264

RRIRYRPPRLPRPRPRPMFNPRP
shrunken log2 fold change: -1.14

RRIRDRPPRLPRPRPRPMKKPRP
shrunken log2 fold change: 0.0162

RRIRTRPPRLPRPRPRPKTGPRP
shrunken log2 fold change: -0.104

RRIRFRPPRLPRPRPRPLDRPRP
shrunken log2 fold change: 0.163

RRIRERPPRLPRPRPRPKHTPRP
shrunken log2 fold change: -0.127

RRIRCRPPRLPRPRPRPRCKPRP
shrunken log2 fold change: -0.206

RRIRERPPRLPRPRPRPCICPRP
shrunken log2 fold change: -0.0733

RRIRDRPPRLPRPRPRPPKGPRP
shrunken log2 fold change: 0.644

RRIRERPPRLPRPRPRPNARPRP
shrunken log2 fold change: -0.0167

RRIRIRPPRLPRPRPRPCGRPRP
shrunken log2 fold change: 0.0552

RRIRARPPRLPRPRPRPKVPPRP
shrunken log2 fold change: 0.412

RRIRARPPRLPRPRPRPFKLPRP
shrunken log2 fold change: -0.39

RRIRKRPPRLPRPRPRPDYMPRP
shrunken log2 fold change: 0.0305

RRIRDRPPRLPRPRPRPVDRPRP
shrunken log2 fold change: 0.358

RRIRQRPPRLPRPRPRPQMVPRP
shrunken log2 fold change: 0.00426

RRIRLRPPRLPRPRPRPGQCPRP
shrunken log2 fold change: -0.0373

RRIRERPPRLPRPRPRPDFRPRP
shrunken log2 fold change: -0.0858

RRIRCRPPRLPRPRPRPPDLPRP
shrunken log2 fold change: -0.00662

RRIRERPPRLPRPRPRPITQPRP
shrunken log2 fold change: 0.0291

RRIRKRPPRLPRPRPRPPGVPRP
shrunken log2 fold change: 0.548

RRIRTRPPRLPRPRPRPKKMPRP
shrunken log2 fold change: 0.0999

RRIRHRPPRLPRPRPRPLQRPRP
shrunken log2 fold change: -0.187

RRIRARPPRLPRPRPRPKTTPRP
shrunken log2 fold change: 0.0562

RRIRQRPPRLPRPRPRPRTGPRP
shrunken log2 fold change: 0.443

RRIRPRPPRLPRPRPRPLLFPRP
shrunken log2 fold change: 0.0745

RRIRSRPPRLPRPRPRPVLAPRP
shrunken log2 fold change: 0.557

RRIRRRPPRLPRPRPRPYHIPRP
shrunken log2 fold change: -0.365

RRIRRRPPRLPRPRPRPKLVPRP
shrunken log2 fold change: 0.485

RRIRMRPPRLPRPRPRPDVVPRP
shrunken log2 fold change: -0.0061

RRIRHRPPRLPRPRPRPIDMPRP
shrunken log2 fold change: 0.0231

RRIRCRPPRLPRPRPRPKSHPRP
shrunken log2 fold change: -0.117

RRIRLRPPRLPRPRPRPFAFPRP
shrunken log2 fold change: -0.442

RRIRPRPPRLPRPRPRPPMQPRP
shrunken log2 fold change: 0.421

RRIRVRPPRLPRPRPRPGRSPRP
shrunken log2 fold change: 0.649

RRIRVRPPRLPRPRPRPKMGPRP
shrunken log2 fold change: 0.0797

RRIRQRPPRLPRPRPRPYRAPRP
shrunken log2 fold change: -0.0946

RRIRARPPRLPRPRPRPEYDPRP
shrunken log2 fold change: 0.695

RRIRFRPPRLPRPRPRPQNTPRP
shrunken log2 fold change: -0.512

RRIRRRPPRLPRPRPRPVNQPRP
shrunken log2 fold change: 0.129

RRIRSRPPRLPRPRPRPWCVPRP
shrunken log2 fold change: -0.22

RRIRARPPRLPRPRPRPFGVPRP
shrunken log2 fold change: 0.165

RRIRQRPPRLPRPRPRPPWSPRP
shrunken log2 fold change: 0.223

RRIRPRPPRLPRPRPRPIQIPRP
shrunken log2 fold change: -0.119

RRIRNRPPRLPRPRPRPMFQPRP
shrunken log2 fold change: -0.0465

RRIRRRPPRLPRPRPRPQNHPRP
shrunken log2 fold change: -0.191

RRIRSRPPRLPRPRPRPHRDPRP
shrunken log2 fold change: -0.141

RRIRCRPPRLPRPRPRPQVQPRP
shrunken log2 fold change: 0.0244

RRIRDRPPRLPRPRPRPYYAPRP
shrunken log2 fold change: -0.201

RRIRCRPPRLPRPRPRPQLIPRP
shrunken log2 fold change: 0.229

RRIRHRPPRLPRPRPRPPKEPRP
shrunken log2 fold change: 0.121

RRIRFRPPRLPRPRPRPEYNPRP
shrunken log2 fold change: -0.113

RRIRERPPRLPRPRPRPNWYPRP
shrunken log2 fold change: -0.563

RRIRPRPPRLPRPRPRPWVPPRP
shrunken log2 fold change: -0.228

RRIRHRPPRLPRPRPRPNEKPRP
shrunken log2 fold change: -0.0239

RRIRFRPPRLPRPRPRPDDMPRP
shrunken log2 fold change: -0.0994

RRIRIRPPRLPRPRPRPLMGPRP
shrunken log2 fold change: -0.166

RRIRFRPPRLPRPRPRPCNGPRP
shrunken log2 fold change: -0.212

RRIRFRPPRLPRPRPRPDQWPRP
shrunken log2 fold change: -0.125

RRIRGRPPRLPRPRPRPQNFPRP
shrunken log2 fold change: 0.136

RRIRGRPPRLPRPRPRPFPLPRP
shrunken log2 fold change: 0.227

RRIRYRPPRLPRPRPRPYQAPRP
shrunken log2 fold change: -0.0933

RRIRWRPPRLPRPRPRPMQLPRP
shrunken log2 fold change: 0.12

RRIRQRPPRLPRPRPRPKPNPRP
shrunken log2 fold change: 0.301

RRIRSRPPRLPRPRPRPPHWPRP
shrunken log2 fold change: 0.5

RRIRCRPPRLPRPRPRPNYGPRP
shrunken log2 fold change: -0.297

RRIRWRPPRLPRPRPRPVCAPRP
shrunken log2 fold change: 0.553

RRIRYRPPRLPRPRPRPKMEPRP
shrunken log2 fold change: -0.529

RRIRGRPPRLPRPRPRPGAMPRP
shrunken log2 fold change: 1.25

RRIRPRPPRLPRPRPRPRDFPRP
shrunken log2 fold change: 0.317

RRIRERPPRLPRPRPRPPGKPRP
shrunken log2 fold change: 0.28

RRIRNRPPRLPRPRPRPCQAPRP
shrunken log2 fold change: -0.112

RRIRWRPPRLPRPRPRPHKVPRP
shrunken log2 fold change: -0.431

RRIRRRPPRLPRPRPRPIYNPRP
shrunken log2 fold change: -0.246

RRIRVRPPRLPRPRPRPPCEPRP
shrunken log2 fold change: 0.229

RRIRRRPPRLPRPRPRPSMWPRP
shrunken log2 fold change: 0.168

RRIRWRPPRLPRPRPRPQQTPRP
shrunken log2 fold change: 0.103

RRIRNRPPRLPRPRPRPNGEPRP
shrunken log2 fold change: 0.0257

From the supplement of paper PMC9112550, “Optimization of the antimicrobial peptide Bac7 by deep mutational scanning” (BMC Biology, 2022)
